Results from the supplement of paper PMC10126150.
± gives the standard deviation of the averaged measurements.
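Note: ATP exposure 15 min at 22 °C before imaging.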

What follows are sequences tested on ATP (assay: switch fluorescence ratio, 500 uM ATP over buffer (Cy3 cluster intensity, sum of 5 cycles each) (fold (ratio)); higher = stronger signal-on switching upon ATP binding; sequences stand for … in TCGTCGGCAGCGTCAGATGTGTATAAGAGACAGTTTTTTTTTTTTTTTTTTTTTTTTT…TC). Conditions: aptamer strand: ATP DNA aptamer (quencher-CACCTGGGGGAGTATTGCGGAGGAAGG + anchor), 100 nM annealed; ATP concentration: 500 uM.
Method in brief: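 Cy3-labelled switching-strand clusters on a modified Illumina MiSeq flow-cell were annealed to 100 nM quencher-labelled ATP aptamer and imaged first in selection buffer, then after 15 min with 500 uM ATP at 22 °C. NaOH stripping and re-annealing separated each of five buffer/ATP cycles, and clusters outside 100-1000 RFU were excluded. The fluorescence ratio sums target-cycle Cy3 intensity over buffer-cycle Cy3 intensity per cluster and averages it per switch-domain sequence.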
TCGCGGCTAT was tested, and the switch fluorescence ratio was 1.56 ± 0.61.
TCGCGTTTGC showed a switch fluorescence ratio of 1.06 ± 0.054.
Work on TCGCTATGCC yielded a switch fluorescence ratio of 0.991 ± 0.13.
Work on TCGCTCACGG yielded a switch fluorescence ratio of 1.03 ± 0.021.
For TCGCTGGTTG, the switch fluorescence ratio was 0.996 ± 0.022.
Sequence TCGCTTGTTG has a switch fluorescence ratio of 1.03 ± 0.022.
TCGCTTTT was tested, and the switch fluorescence ratio was 1.02 ± 0.02.
TCGGAAAATA showed a switch fluorescence ratio of 1.01 ± 0.026.
Work on TCGGAAAGGA yielded a switch fluorescence ratio of 0.9814 ± 0.0016.
TCGGAATGGC showed a switch fluorescence ratio of 1.27 ± 0.23.
TCGGACTAGG showed a switch fluorescence ratio of 1 ± 0.031.
In the case of TCGGAGAATG, the switch fluorescence ratio is reported as 1.003 ± 0.01.
Work on TCGGAGATTT yielded a switch fluorescence ratio of 0.97302 ± 0.00083.
With TCGGAGGCGG the switch fluorescence ratio was 1.007 ± 0.0069.
In the case of TCGGAGGGAG, the switch fluorescence ratio is reported as 1.02 ± 0.056.
TCGGAGTGCG showed a switch fluorescence ratio of 1.006 ± 0.0062.
In the case of TCGGAGTGCT, the switch fluorescence ratio is reported as 1.04 ± 0.042.
In the case of TCGGAGTGGC, the switch fluorescence ratio is reported as 1.2 ± 0.19.
TCGGAGTTAG gave a switch fluorescence ratio of 1.04 ± 0.022.
TCGGATAGAG showed a switch fluorescence ratio of 0.949 ± 0.058.
With TCGGATCATT the switch fluorescence ratio was 0.9775 ± 0.0039.
With TCGGATGAGG the switch fluorescence ratio was 1 ± 0.042.
For TCGGATGCGT, the switch fluorescence ratio was 1.03 ± 0.035.
In the case of TCGGCACATT, the switch fluorescence ratio is reported as 1.46 ± 0.63.
In the case of TCGGCATCGG, the switch fluorescence ratio is reported as 1 ± 0.021.
TCGGCCTGCT gave a switch fluorescence ratio of 1.01 ± 0.021.
Work on TCGGCGGCTG yielded a switch fluorescence ratio of 0.984 ± 0.01.
TCGGCGGGTC showed a switch fluorescence ratio of 0.9973 ± 0.0015.
Sequence TCGGCTATGG has a switch fluorescence ratio of 1.01 ± 0.011.
TCGGCTGGAA was tested, and the switch fluorescence ratio was 1.027 ± 0.0025.
TCGGCTGGGG was tested, and the switch fluorescence ratio was 0.991 ± 0.014.
Sequence TCGGCTTGTT has a switch fluorescence ratio of 1.02 ± 0.02.
TCGGGAAGAG gave a switch fluorescence ratio of 0.98832 ± 5e-05.
Sequence TCGGGAAGGA has a switch fluorescence ratio of 1.01 ± 0.031.
With TCGGGAGAAT the switch fluorescence ratio was 1.01 ± 0.015.
In the case of TCGGGAGGCT, the switch fluorescence ratio is reported as 1 ± 0.028.
Work on TCGGGAGTGG yielded a switch fluorescence ratio of 0.9905 ± 0.0016.
TCGGGATACG gave a switch fluorescence ratio of 1.14 ± 0.021.
TCGGGCATAG gave a switch fluorescence ratio of 1.06 ± 0.046.
TCGGGCGATG showed a switch fluorescence ratio of 0.983 ± 0.036.
For TCGGGCGGGG, the switch fluorescence ratio was 1.036 ± 0.0098.
TCGGGGCACG showed a switch fluorescence ratio of 0.993 ± 0.052.
TCGGGGCAGG showed a switch fluorescence ratio of 0.988 ± 0.013.
TCGGGGCAGT gave a switch fluorescence ratio of 2.01 ± 1.4.
TCGGGGCTCC showed a switch fluorescence ratio of 2.87 ± 2.6.
TCGGGGGACT was tested, and the switch fluorescence ratio was 0.9827 ± 0.0063.
In the case of TCGGGGGAGG, the switch fluorescence ratio is reported as 0.983 ± 0.022.
TCGGGGGCTT gave a switch fluorescence ratio of 0.996 ± 0.015.
With TCGGGGGGCC the switch fluorescence ratio was 1.02 ± 0.074.
In the case of TCGGGGGGGA, the switch fluorescence ratio is reported as 1.06 ± 0.14.
Work on TCGGGGGTGA yielded a switch fluorescence ratio of 1 ± 0.021.
For TCGGGGGTTC, the switch fluorescence ratio was 1.06 ± 0.027.
Sequence TCGGGGTAAG has a switch fluorescence ratio of 1.03 ± 0.015.
In the case of TCGGGGTGAC, the switch fluorescence ratio is reported as 1.01 ± 0.018.
In the case of TCGGGGTTTT, the switch fluorescence ratio is reported as 1.02 ± 0.036.
In the case of TCGGGTCAGT, the switch fluorescence ratio is reported as 1 ± 0.034.
TCGGGTGTGT was tested, and the switch fluorescence ratio was 0.9889 ± 0.009.
For TCGGGTTCCG, the switch fluorescence ratio was 0.963 ± 0.019.
TCGGGTTCGG gave a switch fluorescence ratio of 0.992 ± 0.032.
For TCGGGTTGAC, the switch fluorescence ratio was 1.02 ± 0.025.
Sequence TCGGGTTGG has a switch fluorescence ratio of 1.03 ± 0.02.
For TCGGTAGGGC, the switch fluorescence ratio was 1.025 ± 0.0089.
For TCGGTAGTGG, the switch fluorescence ratio was 1 ± 0.028.
TCGGTATATA showed a switch fluorescence ratio of 1.03 ± 0.033.
In the case of TCGGTCGACG, the switch fluorescence ratio is reported as 0.962 ± 0.027.
TCGGTCGATT showed a switch fluorescence ratio of 1.019 ± 0.0031.
For TCGGTGATAC, the switch fluorescence ratio was 4.52 ± 1.3.
For TCGGTTAATG, the switch fluorescence ratio was 1 ± 0.042.
TCGGTTGGGA showed a switch fluorescence ratio of 0.986 ± 0.038.
Work on TCGGTTTAGG yielded a switch fluorescence ratio of 1.011 ± 0.0076.
TCGGTTTCAA was tested, and the switch fluorescence ratio was 1.009 ± 0.0056.
With TCGTAAACGG the switch fluorescence ratio was 1.01 ± 0.02.
For TCGTACAGGG, the switch fluorescence ratio was 1.03 ± 0.047.
With TCGTACGCTA the switch fluorescence ratio was 3.38 ± 0.084.
With TCGTAGTGGC the switch fluorescence ratio was 1.11 ± 0.1.
TCGTAGTGGG showed a switch fluorescence ratio of 1.01 ± 0.054.
In the case of TCGTAGTTGC, the switch fluorescence ratio is reported as 1.24 ± 0.027.
In the case of TCGTATAAGG, the switch fluorescence ratio is reported as 0.982 ± 0.037.
TCGTATAGAG gave a switch fluorescence ratio of 1 ± 0.017.
Sequence TCGTATATTA has a switch fluorescence ratio of 1.02 ± 0.013.
TCGTATGATA showed a switch fluorescence ratio of 0.968 ± 0.036.
Sequence TCGTATTGGT has a switch fluorescence ratio of 1.02 ± 0.023.
In the case of TCGTATTGTG, the switch fluorescence ratio is reported as 0.975 ± 0.032.
TCGTCCGGAG was tested, and the switch fluorescence ratio was 1.55 ± 0.016.
In the case of TCGTCCGGCG, the switch fluorescence ratio is reported as 0.96503 ± 0.00055.
For TCGTCGAACG, the switch fluorescence ratio was 0.988 ± 0.04.
Sequence TCGTGCAGTT has a switch fluorescence ratio of 1.01 ± 0.015.
TCGTGGATGG showed a switch fluorescence ratio of 1 ± 0.026.
In the case of TCGTGGGAAG, the switch fluorescence ratio is reported as 0.9721 ± 0.0062.
Work on TCGTGGGGGG yielded a switch fluorescence ratio of 0.991 ± 0.031.
For TCGTGGGTAT, the switch fluorescence ratio was 0.998 ± 0.025.
TCGTGTACGG was tested, and the switch fluorescence ratio was 1.04 ± 0.016.
TCGTGTAGCT showed a switch fluorescence ratio of 1 ± 0.03.
TCGTGTGTTC showed a switch fluorescence ratio of 1.022 ± 0.0047.
TCGTGTTTTC gave a switch fluorescence ratio of 1.03 ± 0.083.
TCGTTATGTG was tested, and the switch fluorescence ratio was 0.9829 ± 0.0085.
TCGTTGGATG was tested, and the switch fluorescence ratio was 0.9829 ± 0.0013.
Work on TCGTTGGGAT yielded a switch fluorescence ratio of 0.986 ± 0.053.
In the case of TCGTTGGGGT, the switch fluorescence ratio is reported as 0.987 ± 0.029.
With TCGTTTGCGT the switch fluorescence ratio was 0.984 ± 0.032.
